Reference: US20140370037A1 (published 2014)
Residue numbers refer to the chain shown, from its start.

T1: human DLL3 antigen (human, UniProt Q9NYJ7 27-492, limits assumed)
T1 construct: also called immobilized human DLL3; recombinant human DLL3
T1 sequence (looked up): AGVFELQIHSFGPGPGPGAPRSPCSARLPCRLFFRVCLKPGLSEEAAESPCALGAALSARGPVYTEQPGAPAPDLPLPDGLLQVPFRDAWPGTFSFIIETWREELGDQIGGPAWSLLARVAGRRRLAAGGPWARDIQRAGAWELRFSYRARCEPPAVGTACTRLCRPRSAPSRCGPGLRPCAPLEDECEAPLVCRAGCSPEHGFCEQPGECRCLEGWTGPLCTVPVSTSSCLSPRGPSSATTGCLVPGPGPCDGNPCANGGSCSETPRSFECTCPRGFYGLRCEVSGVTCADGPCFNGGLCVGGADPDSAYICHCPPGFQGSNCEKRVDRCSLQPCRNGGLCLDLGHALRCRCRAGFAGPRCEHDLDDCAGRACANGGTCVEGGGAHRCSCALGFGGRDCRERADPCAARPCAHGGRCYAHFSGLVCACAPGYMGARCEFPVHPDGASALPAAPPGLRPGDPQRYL

B1: SC16.121 (antibody, V domains shown)
VH: EVQLVESGGGLVQPKGSLKLSCAASGFTFNTYAMNWVRQAPGKGLEWVARIRIKSNNYATYYADSVKDRFTISRDDSQNMLYLQMNNLKTEDTAVYYCVRQGYSYDWGPWFAYWGQGTLVTVSA
VL: QIVLTQSPAIMSASPGEKVTITCSASSSVSYMHWFQQKPGTSPKLWIYSTSNLASGVPARFSGSGSGTSYSLTISRMEAEDAATYYCQQRSSYPPTFGGGTKLEIKR
notes: murine mAb
B2: SC16.124 (antibody, V domains shown)
VH: EVQLQQSGPELVKPGASVKMSCKASGYTFTSYVMHWVKQKPGQGLEWIGYINPYNDGTKYNEKFKGKATLTSDKSSSTAYMELSSLTSEDSAVYYCARGALYYGNYLGYFDVWGAGTTVTVSS
VL: DIQMTQSPASQSASLGESVTITCLASQTIGTWLAWYQQKPGKSPQLLISAATSLADGVPSRFSGSGSGTKFSFKISSLQAEDFVSYYCQQLYSTPWTFGGGTKLEIK
notes: murine mAb
B3: SC16.132 (antibody, V domains shown)
VH: QVQLKESGPGLVAPSQSLSITCTVSGFSLTDYGVSWIRQPPGKGLEWLGVVWGGGSTYYNSALKSRLSITKDNSKSQVFLKMNSLQTDDTAMYYCAKQRGQYGAYWGQGTLVTVSA
VL: B2 VL with S49Y
notes: murine mAb
B4: SC16.138 (antibody, V domains shown)
VH: B3 VH with T70S
VL: B2 VL with S49Y, A50S
notes: murine mAb
B5: SC16.111 (antibody, V domains shown)
VH: EVQLQQSGPELEKPGASVKISCKASGYSFTGYNMNWVKQSNGKSLEWIGNIDPYYGGSSYKQKFEGKATLTVDKSSSTAYMQLKSLTSEDSAVYYCARGGSNFFDYWGQGTTLTVSS
VL: DIQMTQSPASLAASVGETVTITCRASENIYYSLAWYQQKQGKSPQLLIYNANSLEDGVPSRFSGSGSGTQYSMKINSMQPEDTATYFCKQTYDVPLTFGAGTKLELK
notes: murine mAb
B6: SC16.110 (antibody, V domains shown)
VH: EVQLQQSGPGLVRTGASVKISCKASGYSFTGYYMHWVKQSHGKSLEWIGYISCYNGATTYNQNFKGKATFIVDTSSSTAYMQFNSLTSEDSAVYYCARSDGGHAMDYWGQGTSVTVSS
VL: NIVMTQTPKFLLVSAGDRVTITCKASQSVSNDVAWYQQKPGQSPKLLIYYASNRYTGVPDRFTGSGYGTDFTFTISTVQAEDLAVYFCQQDYSSPPTFGGGTKLEIK
notes: murine mAb
B7: SC16.118 (antibody, V domains shown)
VH: EVQLQQSGPDLVKPGASVKISCKASGYSFTGYYMHWVKQSHGKSLEWIGRVNPNNGGTSYNQKFKGKAILTADKSSSTAYMELRSLTSEDSAVYYCARGSYDYAEGWGQGTLVTVSA
VL: DIVLTQSPASLAVSLGQRATISCKASQSVDYDGDSYLTWYQQKPGQPPKLLIYAASNLESGIPARFSGSGSGTDFTLNIHPVEEEDAATYYCQQSNEDPYTFGGGTKLEIKR
notes: murine mAb
B8: SC16.134 (antibody, V domains shown)
VH: B7 VH with S44R, S59N, A72V, Y103N
VL: B7 VL with Y31H, D32A, L37M, T38N
notes: murine mAb
B9: SC16.109 (antibody, V domains shown)
VL: QIVLTQSPAIMSASPGEKVTMTCSASSSVSYMYWYQQKPGSSPRLLIYDTSNLASGVPVRFSGSGSGTSFSLTISRMEAEDTATYYCQEWSGNPLTFGDGTKLELK
V domain: QIQLVQSGPELKKPGETVKISCKASGYTFTNYGMNWVKQAPGKGLKWMGWINTYTGEPAYADDFKGRFAFSLETSASAAYLQINNLKNEDTATFFCANMRPTRGFAYWGQGTLGTVSA
notes: murine mAb
B10: SC16.11 (antibody, V domains shown)
VH: QIQLVQSGPELKKPGETVKISCKASGYTFTDYSMHWVKQAPGKGLKWMGWINTETVEPTYADDFMGRFAFSLETSASTAFLQINNLENEDTATYFCARFGSYAMDYWGQGTSVTVSS
VL: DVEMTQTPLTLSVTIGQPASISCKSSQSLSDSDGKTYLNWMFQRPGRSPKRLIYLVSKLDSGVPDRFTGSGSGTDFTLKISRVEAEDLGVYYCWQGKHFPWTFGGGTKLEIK
notes: murine mAb
B11: SC16.130 (antibody, V domains shown)
VH: EVQLQQSGPELVKPGASVKMSCKASGYTFTSYVMHWVKQKPGQGLEWIGYINPYNDGTEYNEKFKGKATLTSDKSSSTAYMELSSLTSEDSAVYYCARGVYDGYSYFDYWGQGTTLTVSS
VL: DIQLTQSPASLSASVGETVTITCRASGSIHNYLAWYQQKQGKSPQLLVYNAKTLVDGVPSRFSGSGSGTQYSLKINSLQPEDFGYYYCQHFWTTPWTFGGGTKLEIK
notes: murine mAb
B12: SC16.106 (antibody, V domains shown)
VH: QVQLKQSGPGLVAPSQSLFITCTVSGFSLTSYEINWVRQPPGKGLEWLGVIWTGGSTNYNSALISRLSISKDNSKSLVFLKMNSLQTDDTAIYYCVRGVYAMDYWGQGTSVTVSS
VL: DIKMTQSPSSMYASLGERVTITCKASQDINSYLSWFQQKPGKSPKTLIYRANRLVDGVPSRFSGSGSGQDYSLTISSLEYEDMGIYYCLQYDEFPFTFGSGTKLEIK
notes: murine mAb
B13: SC16.10 (antibody, V domains shown)
VH: QVTLKESGPGILQSSQTLSLTCSFSGFSLSTSGMGVGWIRQPSGKGLEWLAHIWWDDVKRYNPVLKSRLTISKDTSSSQVFLKIASVDTADTATYYCARLVDDLYYFDYWGQGTTLTVSS
VL: QIVLTQSPAIMSASLGERVTMTCTASSSVSSSYLHWYQQKPGSSPKLWIYSTSNLASGVPTRFSGSGSGTSYSLTISSMEAEDAATYYCHQYHRSPFTFGSGTKLEIK
notes: murine mAb
B14: SC16.123 (antibody, V domains shown)
VH: QVALKESGPGILQPSQTLSLTCSFSGFSLSTSGMGVGWIRQPSGKGLEWLAHIWWDDVKRYNPALKSRLTISKDTSSSQVFLKIASVDTADTATYYCARMEDYGSSSYFDFWGHGTTLTVSS
VL: B13 VL with T61A, A81T
notes: murine mAb
B15: SC16.104 (antibody, V domains shown)
VH: QVQLKESGPDLVQPSQTLSLTCTVSGFSLTFYGVHWVRQPPGKGLEWVGTMGWDDKKYYNSALKSRLSISRDTSKNQVFLKLSSLQTEDTAMYYCTRGGTGFDYWGQGTTLTVSS
VL: QIVLSQSPAILSASPGEKVTMTCRASSSVSYIHWYRQKPGSSPKPWIYATSNLASGVPARFSGSGSGTSYSLTISRVEAEDAATYYCQQWSSNPPTFGAGTKLELK
notes: murine mAb
B16: SC16.117 (antibody, V domains shown)
VH: QVQLKESGPGLVAPSQSLSIPCTVSGFSLTNYGVHWVRQPPGKGLEWLGVIWAGGITNYNSALMSRLSISEDNSKSQVFLKMNSLQTDDTAMYYCARNLGPYAMDYWGQGTSVTVSS
VL: DIQMNQSPSSLSASLGDTITITCHVSQNINVWLSWYQQKPGNIPKLLIQKASNLHTGVPSRFSGSGSGTGFTLTISSLQPEDIATYYCQQGQSYPFTFGSGTKLEIK
notes: murine mAb
B17: SC16.126 (antibody, V domains shown)
VH: QVQMKESGPGLVAPSQSLSITCTVSGSSLTNYGVHWVRQPPGKGLEWLGVIWAGGSTNYNSALMSRLSISKDNSKSQVFLKMNSLQTDDTAMYYCARDWEGWFAYWGQGTLVTVSA
VL: B16 VL with V25A, Q49Y
notes: murine mAb
B18: SC16.125 (antibody, V domains shown)
VH: DVQLQESGPDLVKPSQSLSLTCTVTGYSITSGYSWHWIRQFPGNKLEWMGYIHYSGSTNYNPSLKSRISITRDTSKNQFFLQFKSVTTEDSATYYCALEGNYDGFAYWGQGTLVTVS
VL: B16 VL with V25A, Q49Y, N53I, Y87S, F96Y, S100G
notes: murine mAb
B19: SC16.149 (antibody, V domains shown)
VH: B17 VH with M4L, T23A, S27F, N31S, Y32F, N60Y, K71I
VL: B16 VL with V25A, Q49Y, N53H, F62L, K103T
notes: murine mAb
B20: SC16.107 (antibody, V domains shown)
VH: EVQLQQSGPELVKPGASVKMSCKASGYTFTNYVMHWVKQKPGQGLEWIGYINPYNDGTKYNEKFKGKATLTSDKSSTTAYMALSSLTSEDSAVYYCAVAYYSNWGFAYWGQGTLVTVSA
VL: DIVMTQSHKFMSTSVGDRVSITCKASQDVNTAVGWYQQKPGQSPKLLIYSASYRYTGVPDRFTGSGSGTDFTFTISSVQAEDLAVYYCQQHYSSPYTFGGGTKLEIKR
notes: murine mAb
B21: SC16.122 (antibody, V domains shown)
VH: EVQLVESGGGLVKPGGSLKLSCAASGFTFSDYYMFWVRQTPEKRLEWVATISDGGSYTYFPDSVKGRFTISRDNAQNNLYLQMSSLKSEDTAMYYCARAGTLYAMDYWGQGTSVTVSS
VL: DIVMTQSQKFMSTSVGDRVSVTCKASQNVGTNVAWYQQKPGQSPKVLIYSASYRYSGVPDRFTGSGSGTDFTLTISNVQSEDLAEFFCQQYNSYPLTFGGGTKLEIK
notes: murine mAb
B22: SC16.114 (antibody, V domains shown)
VH: EVQLQQSGAELVKPGASVKLSCTASGFNIKDTYIHWVKQRPEQGLEWIGRIDPANGNTKYDPKFQGKATITPDTSSNTAYLQLSSLTSEDTAVYYCARSWRNYGSSFWYFDVWGAGTTVTVSS
VL: QIVLSQSPAILSASPGEKVTMTCRASSSVSYMHWYQQKPGSSPKPWIYATSNLASGVPARFSGSGSGTSYSLTISRVEAEDAATYYCQQWSSNPYTFGGGTKLEIKR
notes: murine mAb

What follows are binders tested against T1, human DLL3 antigen (assay: ELISA or flow cytometry screen).
B1: binds. B2: binds. B3: binds. B4: binds. B5: binds. B6: binds. B7: binds. B8: binds. B9: binds. B10: binds. B11: binds. B12: binds. B13: binds. B14: binds. B15: binds. B16: binds. B17: binds. B18: binds. B19: binds. B20: binds. B21: binds. B22: binds.
